# Assay results reported in paper PMC9724678, “The Autophagy Receptor TAX1BP1 (T6BP) improves antigen presentation by MHC‐II molecules” (EMBO Reports, 2022).
# Molecular target: T1, GFP-T6BP (TAX1BP1 / TRAF6-binding protein fused to GFP) (UniProt Q86VP1 1-789)
# T1 construct: plasmid a gift from F. Buss; it is written both GFP-T6BP and T6BP-GFP; also called T6BP-GFP; source: HeLa-CIITA, transfected, in lysate
# Test: co-IP; GFP-T6BP or GFP alone from transfected HeLa-CIITA lysate on GFP-Trap beads, Western blot for CANX
# Conditions: partners not purified
# T1 sequence (Q86VP1 whole entry, the tested form may be a part): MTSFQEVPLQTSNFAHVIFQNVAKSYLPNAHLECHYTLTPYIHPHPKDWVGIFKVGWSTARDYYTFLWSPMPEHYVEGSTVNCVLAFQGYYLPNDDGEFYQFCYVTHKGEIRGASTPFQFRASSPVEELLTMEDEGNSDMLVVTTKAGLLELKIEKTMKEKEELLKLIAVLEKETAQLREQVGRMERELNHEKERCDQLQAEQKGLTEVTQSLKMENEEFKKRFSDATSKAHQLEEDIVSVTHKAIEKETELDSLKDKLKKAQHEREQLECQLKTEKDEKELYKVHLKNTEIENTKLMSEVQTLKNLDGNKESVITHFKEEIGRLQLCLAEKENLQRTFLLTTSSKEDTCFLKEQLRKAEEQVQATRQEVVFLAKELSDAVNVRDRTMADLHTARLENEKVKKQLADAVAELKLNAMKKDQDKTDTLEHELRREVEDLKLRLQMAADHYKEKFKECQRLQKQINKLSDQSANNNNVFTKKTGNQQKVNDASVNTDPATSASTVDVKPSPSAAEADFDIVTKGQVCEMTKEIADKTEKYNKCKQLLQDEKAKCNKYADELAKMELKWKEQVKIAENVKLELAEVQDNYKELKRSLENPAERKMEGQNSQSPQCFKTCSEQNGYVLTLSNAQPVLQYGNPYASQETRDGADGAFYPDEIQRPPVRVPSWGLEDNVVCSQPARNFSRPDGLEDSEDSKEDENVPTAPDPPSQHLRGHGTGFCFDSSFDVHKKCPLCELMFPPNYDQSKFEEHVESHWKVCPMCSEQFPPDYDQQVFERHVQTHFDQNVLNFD
binder,measurement,value
"Calnexin (CANX), endogenous (natural protein, UniProt P27824 21-592, looked up, ER-resident chaperone calnexin, endogenous; source: endogenous, HeLa-CIITA, DG-75 (B) and KG-1 (dendritic-like) lysates; endogenous in fixed HeLa-CIITA cells) HDGHDDDVIDIEDDLDDVIEEVEDSKPDTTAPPSSPKVTYKAPVPTGEVYFADSFDRGTLSGWILSKAKKDDTDDEIAKYDGKWEVEEMKESKLPGDKGLVLMSRAKHHAISAKLNKPFLFDTKPLIVQYEVNFQNGIECGGAYVKLLSKTPELNLDQFHDKTPYTIMFGPDKCGEDYKLHFIFRHKNPKTGIYEEKHAKRPDADLKTYFTDKKTHLYTLILNPDNSFEILVDQSVVNSGNLLNDMTPPVNPSREIEDPEDRKPEDWDERPKIPDPEAVKPDDWDEDAPAKIPDEEATKPEGWLDDEPEYVPDPDAEKPEDWDEDMDGEWEAPQIANPRCESAPGCGVWQRPVIDNPNYKGKWKPPMIDNPSYQGIWKPRKIPNPDFFEDLEPFRMTPFSAIGLELWSMTSDIFFDNFIICADRRIVDDWANDGWGLKKAADGAAEPGVVGQMIEAAEERPWLWVVYILTVALPVFLVILFCCSGKKQTSGMEYKKTDAPQPDVKEEEEEKEEEKDKGDEEEEGEEKLEEKQKSDAEEDGGTVSQEEEDRKPKAEEDEILNRSPRNRKPRRE",fold enrichment against the GFP control,3 fold
